Laboratory results published in patent US20210395381A1.

B1: Clone 8.17 (VNAR)
VNAR: ARVDQTPQTITKETGESLTINCVLRDSNCALPSTYWYRKKSGSTNEESISKGGRYVETVNSGSKSFSLRINDLTVEDSGTYRCKVIAYRKSIVRGCNYRKHDVYGDGTAVTVNA
B2: Clone 8.137 (VNAR)
VNAR: ARVDQTPQTITKETGESLTINCVLRDSNCALPSTYWYRKKSGSTNEESISKGGRYVETVNSGSKSFSLRINDLTVEDSGTYRCKVIAQLSSILRGCNYFGKDVYGDGTAVTVNA
B3: Clone 8.97 (VNAR)
VNAR: ARVDQTPQTITKETGESLTINCVLRDSNCALPSTYWYRKKSGSTNEESISKGGRYVETVNSGSKSFSLRINDLTVEDSGTYRCKVIAQLSSILRGCNYNIDDVYGDGTAVTVNA

molecular target: recombinant mouse TfR-1 (mouse) (UniProt Q62351); experiment: phage ELISA
Sequence (Q62351 89-763 limits assumed): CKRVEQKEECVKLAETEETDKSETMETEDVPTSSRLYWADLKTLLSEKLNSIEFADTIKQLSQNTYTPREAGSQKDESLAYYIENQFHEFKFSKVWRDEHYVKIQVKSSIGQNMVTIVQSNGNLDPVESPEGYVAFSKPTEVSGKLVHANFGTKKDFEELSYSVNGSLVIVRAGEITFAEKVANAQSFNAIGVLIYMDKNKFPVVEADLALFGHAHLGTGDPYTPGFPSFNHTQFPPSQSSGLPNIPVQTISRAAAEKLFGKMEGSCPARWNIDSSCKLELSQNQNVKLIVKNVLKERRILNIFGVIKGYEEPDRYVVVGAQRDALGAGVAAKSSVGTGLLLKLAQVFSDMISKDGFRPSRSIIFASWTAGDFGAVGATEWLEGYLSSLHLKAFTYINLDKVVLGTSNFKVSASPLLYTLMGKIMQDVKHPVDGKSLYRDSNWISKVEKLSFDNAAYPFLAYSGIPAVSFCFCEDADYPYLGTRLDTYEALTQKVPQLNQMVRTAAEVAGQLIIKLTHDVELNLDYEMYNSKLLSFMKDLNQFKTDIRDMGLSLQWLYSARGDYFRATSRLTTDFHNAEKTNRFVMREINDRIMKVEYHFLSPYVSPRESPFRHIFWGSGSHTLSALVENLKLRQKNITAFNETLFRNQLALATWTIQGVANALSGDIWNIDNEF

First: B1
Second: B2
The A450 of the first is higher: 0.091 A450 for the first, 0.046 A450 for the second.

B3 showed an A450 of 0.053 A450.
